Reference: US20230112123A1 (published 2023)
Each block holds one binder with its values, some of them ahead of it.

Molecular target: T1, human CD70 (human, UniProt P32970 1-193)
T1 chain: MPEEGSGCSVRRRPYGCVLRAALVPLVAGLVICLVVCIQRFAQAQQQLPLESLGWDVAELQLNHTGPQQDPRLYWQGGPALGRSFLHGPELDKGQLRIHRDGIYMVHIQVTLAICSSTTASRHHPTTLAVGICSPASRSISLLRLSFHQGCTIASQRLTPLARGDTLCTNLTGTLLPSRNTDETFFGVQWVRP
Experiment: FACS blocking of CD27(ECD)-Fc binding; CHO-CD70 cells

IC50: 2.04 nM
B1: IMM40H (antibody, V domains shown)
VH: QVQLVQSGAEVKKPGASVKVSCKVSGYTFTDSALHWVRQAPGKGLEWMGVISTYDGDTDYNQKFKGRVTMTEDTSTDTAYMELSSLRSEDTAVYYCARRGYYDYDWFPYWGQGTLVTVSA
VL: DIVLTQSPASLAVSPGQRATITCRASKSVSASGYSFLHWYQQKPGQPPKLLIYLASNLESGVPARFSGSGSGTDFTLTINPVEANDTANYYCQHSRELPPTFGGGTKVEIKR

IC50: 2.39 nM
B2: Cusatuzumab (antibody, V domains shown)
VH: EVQLVESGGGLVQPGGSLRLSCAASGFTFSVYYMNWVRQAPGKGLEWVSDINNEGGTTYYADSVKGRFTISRDNSKNSLYLQMNSLRAEDTAVYYCARDAGYSNHVPIFDSWGQGTLVTVSS
VL: QAVVTQEPSLTVSPGGTVTLTCGLKSGSVTSDNFPTWYQQTPGQAPRLLIYNTNTRHSGVPDRFSGSILGNKAALTITGAQADDEAEYFCALFISNPSVEFGGGTQLTVLG
